No end group written: not given here.
Assays:
[1] = target: T1, WW domains of WWP1 expressed as GST fusion proteins (Homo sapiens, UniProt Q9H0M0); assay: ELISA based cross affinity mapping, WW domains of WWP1; assay type: binding; conditions: GST fusion protein
T1 construct: twelve individual novel WW domains of WWP1, WWP2, WWP3 and WWP4 which were expressed as GST fusion proteins; made in house
Experimental: (§1) The 16 day mouse embryo cDNA expression library was diluted 1:1000 in SM solution (100 mM NaCl, 8 mM MgSOv4, 50 mM Tris HCl pH 7.5, 0.01% gelatin). To a sterile test tube, 2 μl of diluted mouse embryo library, 100 μl of 10 mM CaCl2, 100 μl of 10 mM MgCl2 and 100 μl of BL21(DE3)pLysE bacterial cells (grown overnight) were added and incubated for 30 minutes at 37° C. The contents of the tube were mixed with 3 ml of 0.6% top agarose, containing […] chloramphenicol, and poured onto a 2xYT plate (90 mm diameter). For a large primary screen, 10–20 plates were prepared with 3×10^4 pfu per plate. After 6 hours incubation at 37° C., a nitrocellulose filter soaked in 10 mM isopropyl-β-D-thiogalactopyranoside (IPTG) was overlaid on each plate and incubated 3–6 hours at 37° C. Before the filters were removed from the plates, they were marked asymmetrically with India ink in a 18 gauge syringe needle. The plates were stored at 4° C. until ready for the secondary screen. The filters were washed with PBS (137 mM NaCl, 2.7 mM KCl, 4.3 mM Na2HPO4, 1.4 mM KH2PO4)-0.05% Triton X-100 three times at room temperature, 15 minutes each wash, and then placed in a plastic bag containing non-specific blocking solution (PBS-2% BSA) for one hour. In the meantime, 1 ml of 1 mM biotinylated peptide in PBS-0.1% Tween 20 was added to 20 ml of 1 mg/ml streptavidin-alkaline phosphatase (SA-AP) in PBS-0.1% Tween 20 and incubated at 4° C. for 30 minutes. […] Excess biotin-binding sites would then be blocked by addition of 500 pmol biotin. […] Ten μl of 0.1 mM biotin would then be added, and the solution incubated for an additional 15 min.
(§2) To determine the ligand preferences of the novel WW omain-containing clones described in Sections 6.1 and 6.1.1, as well as addressing the issue of whether peptides containing PPPPY (SEQ ID NO:3)-like motifs derived from a variety of proteins could also serve as recognition units and bind to these clones, a cross affinity mapping experiment was performed (FIGS. 15A–D). The peptides shown in FIGS. 15A–D were synthesized, biotinylated, complexed with streptavidin-alkaline phosphatase, and tested in an ELISA based assay for their ability to bind to the twelve individual novel WW domains of WWP1, WWP2, WWP3 and WWP4 which were expressed as GST fusion proteins. The ELISA based cross-affinity experiments were performed essentially as described by Sparks et al. (1996, Proc. Natl. Acad. Sci. 93:1540–1544) with the following modifications. Briefly, microtiter wells were coated with 1–5 μg of fusion protein in 100 mM NaHCO3, blocked with SuperBlock TBS (Pierce) and washed four times with PBS, 0.05% Tween 20. Specific peptide-streptavidin/alkaline phosphatase complexes were added as above and unbound complexes washed five times with PBS, 0.05% Tween 20. Following addition of PNP substrate (p-nitrophenyl phosphate, Kirkegard & Perry Labs), peptide binding was quantitated after 30 min. at O.D. 405 nm. Relative binding measurements from three independent determinations were assigned to a scale as follows: O.D. units 0–0.5=(−), 0.5–1.0=(+), 1.0–2.0=(++), 2.0–3.0=(+++), >3.0=(++++). Peptide binding to human Fyn and Lyn SH3 and SH2 domains was assessed by a filter binding assay (see Section 6.1 and Sparks et al., 1996, Proc. Natl. Acad. Sci 93:1540–1544). Peptide sequences used in cross-affinity experiments correspond to segments of the following genes: RasGap (Database accession # P20936), AP-2 (P05549), p53BP-2 (U09582), IL-6Rα (P22272), voltage-gated chloride channel CLCN5 (X91906), IL-2Rγ (D111086), RSV (D10652), HTLV-1 (D13784), β-dystroglycan (L19711), Formin (X53599), amiloride-sensitive epithelial Na^+ channel ENaCα (P37089), ENaCβ (X87159) and ENaCγ (X87160), muscarinic acetylcholine receptor M4 AChR (P08173), and c-Abl (P00522). Src and Crk SH3 binding peptide sequences were derived from a phage display random peptide library screen (Section 6.1 and Sparks et al., 1996, Proc. Natl. Acad. Sci. 93:1540–1544).

[2] = target: T2, WW domains of WWP2 expressed as GST fusion proteins (Homo sapiens, UniProt O00308); assay: ELISA based cross affinity mapping, WW domains of WWP2; assay type: binding
T2 construct: twelve individual novel WW domains of WWP1, WWP2, WWP3 and WWP4 which were expressed as GST fusion proteins; made in house
Experimental: as §1, §2

[3] = test system: WW domains of WWP4 expressed as GST fusion proteins; assay: ELISA based cross affinity mapping, WW domains of WWP4; assay type: binding, human; conditions: biotinylated peptide-streptavidin/alkaline phosphatase complex; GST fusion proteins; ELISA
Experimental: as §1, §2

[4] = test system: twelve individual novel WW domains of WWP1, WWP2, WWP3 and WWP4; assay: ELISA based cross affinity mapping, whole panel of novel WW domains; assay type: binding, human; conditions: biotinylated peptide-streptavidin/alkaline phosphatase complex, GST fusion proteins
Experimental: as §1, §2

[5] = test system: WW domains of WWP1 expressed as GST fusion proteins; assay: ELISA based cross affinity mapping, WW domains of WWP1; assay type: binding, human; conditions: biotinylated peptide-streptavidin/alkaline phosphatase complex; GST fusion proteins; ELISA
Experimental: as §1, §2

[6] = test system: WW domains of WWP2 expressed as GST fusion proteins; assay: ELISA based cross affinity mapping, WW domains of WWP2; assay type: binding, human; conditions: biotinylated peptide-streptavidin/alkaline phosphatase complex; GST fusion proteins; ELISA
Experimental: as §1, §2

[7] = target: T3, WW domains of WWP4 expressed as GST fusion proteins (Homo sapiens, UniProt Q96PU5); assay: ELISA based cross affinity mapping, WW domains of WWP4; assay type: binding; conditions: GST fusion protein
T3 construct: twelve individual novel WW domains of WWP1, WWP2, WWP3 and WWP4 which were expressed as GST fusion proteins; made in house
Experimental: as §1, §2

binding to individual WW domain WWP1.2 [1]	binding to individual WW domain WWP2.3 ([2]; GST fusion protein)	binding to WW domains of WWP4 [3]	binding to individual WW domain WWP1.4 [1]	binding to individual WW domain WWP2.4 ([2]; GST fusion protein)	binding to individual WW domain WWP1.1 [1]	binding to WW domains of WWP1 [5]	binding to individual WW domain WWP2.1 ([2]; GST fusion protein)	binding to individual WW domain WWP2.2 ([2]; GST fusion protein)	O.D. after 30 minutes at 405 nm ([2]; individual WW domain WW2.4, GST fusion protein)	binding to WW domains of WWP2 [6]	binding to individual WW domain WWP4.1 [7]	binding to individual WW domain WWP4.2 [7]	binding to individual WW domain WWP4.3 [7]	Substance	binding to the novel WW domains (WWP1, WWP2, WWP3, WWP4 panel) [4]
did not abolish binding	did not abolish binding	loss of binding activity	–	–	–	–	–	–	–	–	–	–	–	WBP-1-Pro2: alanine substitution variant of WBP-1 at the second proline residue of the PPPPY motif (SGSGPGTPAPPYTVGPGY)	–
–	–	–	appreciable binding	appreciable binding	–	–	–	–	–	–	–	–	–	CLCN5: peptide from the voltage-gated renal chloride channel CLCN5 (X91906) (SPPLPPYTPP)	bound to WW domains from one or more of the four novel clones
–	–	bind to individual WW domains	binds	binds	binds	bind to individual WW domains	binds	binds	3.0	bind to individual WW domains	binds	binds	binds	bWW059: biotinylated peptide corresponding to the wild-type PPPPY-like motif in the HECT domain of WWP4 (NRLDLPPYETFED; also: biotinylated, site not given here)	–
